Results reported in patent publication US20050266528A1.

Target: von Willebrand factor (vWF) (UniProt P04275)
Experiment: affinity chromatography, peptide immobilised, linear 0-2 mol/l NaCl gradient, vWF antigen ELISA of fractions

Sequence of UniProt P04275 (P04275 764-2813): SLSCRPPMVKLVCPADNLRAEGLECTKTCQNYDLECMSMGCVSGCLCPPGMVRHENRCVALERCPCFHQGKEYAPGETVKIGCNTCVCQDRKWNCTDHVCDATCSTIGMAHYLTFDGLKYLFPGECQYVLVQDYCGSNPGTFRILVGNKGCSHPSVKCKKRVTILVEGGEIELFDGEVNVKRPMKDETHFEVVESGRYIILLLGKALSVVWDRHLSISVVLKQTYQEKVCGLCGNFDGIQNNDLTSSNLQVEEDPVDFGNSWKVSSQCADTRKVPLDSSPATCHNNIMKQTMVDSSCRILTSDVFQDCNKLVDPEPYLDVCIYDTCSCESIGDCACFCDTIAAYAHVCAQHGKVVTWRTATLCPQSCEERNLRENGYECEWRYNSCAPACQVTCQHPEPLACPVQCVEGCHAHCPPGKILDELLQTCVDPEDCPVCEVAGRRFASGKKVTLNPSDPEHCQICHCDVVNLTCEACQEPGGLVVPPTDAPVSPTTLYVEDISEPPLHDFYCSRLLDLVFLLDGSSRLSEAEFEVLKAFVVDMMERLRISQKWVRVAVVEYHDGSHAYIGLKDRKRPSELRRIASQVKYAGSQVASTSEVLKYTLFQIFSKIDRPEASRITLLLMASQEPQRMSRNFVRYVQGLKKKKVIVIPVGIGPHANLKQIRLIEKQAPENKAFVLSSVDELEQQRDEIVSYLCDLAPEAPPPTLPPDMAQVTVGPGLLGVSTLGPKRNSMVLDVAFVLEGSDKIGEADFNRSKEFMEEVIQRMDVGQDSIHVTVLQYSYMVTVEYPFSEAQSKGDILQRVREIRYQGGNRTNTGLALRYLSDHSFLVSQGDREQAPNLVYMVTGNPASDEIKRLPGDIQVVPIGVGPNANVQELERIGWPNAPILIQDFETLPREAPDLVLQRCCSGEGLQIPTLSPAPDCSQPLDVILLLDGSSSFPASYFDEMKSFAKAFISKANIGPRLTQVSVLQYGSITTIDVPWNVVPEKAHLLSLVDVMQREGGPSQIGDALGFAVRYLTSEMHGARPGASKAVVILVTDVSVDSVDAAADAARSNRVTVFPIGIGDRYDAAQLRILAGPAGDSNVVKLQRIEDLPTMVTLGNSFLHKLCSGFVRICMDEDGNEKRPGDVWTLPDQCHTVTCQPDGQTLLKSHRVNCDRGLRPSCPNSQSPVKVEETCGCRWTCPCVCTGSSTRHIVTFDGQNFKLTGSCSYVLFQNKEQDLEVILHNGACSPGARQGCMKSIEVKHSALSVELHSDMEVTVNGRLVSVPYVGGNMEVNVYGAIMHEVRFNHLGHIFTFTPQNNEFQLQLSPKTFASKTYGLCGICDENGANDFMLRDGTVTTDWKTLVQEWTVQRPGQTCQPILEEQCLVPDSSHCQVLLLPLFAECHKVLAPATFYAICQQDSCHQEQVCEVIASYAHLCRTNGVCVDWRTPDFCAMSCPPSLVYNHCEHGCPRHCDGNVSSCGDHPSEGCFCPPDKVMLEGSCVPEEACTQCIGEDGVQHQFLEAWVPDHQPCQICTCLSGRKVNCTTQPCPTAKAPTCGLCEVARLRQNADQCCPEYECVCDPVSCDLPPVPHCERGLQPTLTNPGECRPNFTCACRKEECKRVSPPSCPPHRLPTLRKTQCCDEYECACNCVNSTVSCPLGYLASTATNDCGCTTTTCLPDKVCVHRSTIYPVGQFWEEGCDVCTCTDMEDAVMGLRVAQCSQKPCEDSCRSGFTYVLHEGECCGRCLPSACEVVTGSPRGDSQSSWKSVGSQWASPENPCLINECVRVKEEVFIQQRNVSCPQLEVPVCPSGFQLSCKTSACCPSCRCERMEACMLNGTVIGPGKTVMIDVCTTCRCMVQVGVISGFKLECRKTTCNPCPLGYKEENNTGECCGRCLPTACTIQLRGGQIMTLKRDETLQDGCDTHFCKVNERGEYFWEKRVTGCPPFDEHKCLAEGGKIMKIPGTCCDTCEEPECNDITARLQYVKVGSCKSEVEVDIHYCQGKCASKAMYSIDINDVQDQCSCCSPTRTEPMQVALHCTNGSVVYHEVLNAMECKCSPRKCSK

AAGGILHLELLV [peptide with the sequence …]
NaCl concentration at which vWF elutes from the peptide: 100 mmol/L
